From article PMC10786891, “Massively parallel profiling of RNA-targeting CRISPR-Cas13d”

T1: EsCas13d, nuclease-dead (Eubacterium siraeum, UniProt B0MS50, R295A;H300A;R849A;H854A)
T1 sequence: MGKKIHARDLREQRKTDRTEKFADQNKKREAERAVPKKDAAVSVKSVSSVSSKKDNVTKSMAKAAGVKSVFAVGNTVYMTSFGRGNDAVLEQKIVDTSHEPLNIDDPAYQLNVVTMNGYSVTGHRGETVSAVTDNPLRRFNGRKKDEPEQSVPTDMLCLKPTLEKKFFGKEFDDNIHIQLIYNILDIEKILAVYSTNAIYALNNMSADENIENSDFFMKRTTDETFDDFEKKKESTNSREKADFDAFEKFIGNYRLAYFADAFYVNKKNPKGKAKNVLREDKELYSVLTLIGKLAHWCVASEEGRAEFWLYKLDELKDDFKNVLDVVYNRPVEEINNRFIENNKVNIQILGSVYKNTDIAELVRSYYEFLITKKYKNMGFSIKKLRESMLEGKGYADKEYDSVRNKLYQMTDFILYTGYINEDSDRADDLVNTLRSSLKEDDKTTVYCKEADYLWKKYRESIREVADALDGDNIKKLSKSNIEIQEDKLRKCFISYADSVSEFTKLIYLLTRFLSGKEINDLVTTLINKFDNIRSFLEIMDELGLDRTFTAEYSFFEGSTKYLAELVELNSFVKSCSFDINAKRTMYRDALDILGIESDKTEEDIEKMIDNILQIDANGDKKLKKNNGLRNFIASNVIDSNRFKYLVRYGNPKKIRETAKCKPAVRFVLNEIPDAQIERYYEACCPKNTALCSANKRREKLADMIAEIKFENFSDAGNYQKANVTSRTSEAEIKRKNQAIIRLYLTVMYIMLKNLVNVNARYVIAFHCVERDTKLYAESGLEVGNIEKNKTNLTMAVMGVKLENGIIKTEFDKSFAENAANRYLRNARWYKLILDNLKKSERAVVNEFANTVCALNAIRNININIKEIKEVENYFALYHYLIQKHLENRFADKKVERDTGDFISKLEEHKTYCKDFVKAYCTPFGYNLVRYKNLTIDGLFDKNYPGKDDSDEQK

B1: target 2 MT 5'PFS UAG 3'PFS CUC (mixed)
RNA 1: CACCCGUGCAAAAUUGCAGGGGUCUAAAACCUUCUCCAAAUUGUUUCAUCCU
RNA 2: GGGAAUGGAUCCACAUCUACGAAUUCUAGAGGAUGAAACAAUUUGGAGAAGCUCAGAUCGGAAGAGCACACGU
B2: target 2 MT 5'PFS UAG 3'PFS CUA (mixed)
RNA 1: CACCCGUGCAAAAUUGCAGGGGUCUAAAACCUUCUCCAAAUUGUUUCAUCCU
RNA 2: GGGAAUGGAUCCACAUCUACGAAUUCUAGAGGAUGAAACAAUUUGGAGAAGCUAAGAUCGGAAGAGCACACGU
B3: target 2 MT 5'PFS GGG 3'PFS CCG (mixed)
RNA 1: CACCCGUGCAAAAUUGCAGGGGUCUAAAACCUUCUCCAAAUUGUUUCAUCCU
RNA 2: GGGAAUGGAUCCACAUCUACGAAUUCGGGAGGAUGAAACAAUUUGGAGAAGCCGAGAUCGGAAGAGCACACGU
B4: target 2 MT 5'PFS GGG 3'PFS CCA (mixed)
RNA 1: CACCCGUGCAAAAUUGCAGGGGUCUAAAACCUUCUCCAAAUUGUUUCAUCCU
RNA 2: GGGAAUGGAUCCACAUCUACGAAUUCGGGAGGAUGAAACAAUUUGGAGAAGCCAAGAUCGGAAGAGCACACGU
B5: target 2 MT 5'PFS UGU 3'PFS CGA (mixed)
RNA 1: CACCCGUGCAAAAUUGCAGGGGUCUAAAACCUUCUCCAAAUUGUUUCAUCCU
RNA 2: GGGAAUGGAUCCACAUCUACGAAUUCUGUAGGAUGAAACAAUUUGGAGAAGCGAAGAUCGGAAGAGCACACGU
B6: target 2 MT 5'PFS UGU 3'PFS CGC (mixed)
RNA 1: CACCCGUGCAAAAUUGCAGGGGUCUAAAACCUUCUCCAAAUUGUUUCAUCCU
RNA 2: GGGAAUGGAUCCACAUCUACGAAUUCUGUAGGAUGAAACAAUUUGGAGAAGCGCAGAUCGGAAGAGCACACGU
B7: target 1 C4A,C6A (mixed)
RNA 1: CACCCGUGCAAAAAUGCAGGGGUCUAAAACUGAGCGGAUAACCUCUCUAUGG
RNA 2: GGGAAUGGAUCCACAUCUACGAAUUCGUACCAUAGAGAGGUUAUCAGAUCACCGAGAUCGGAAGAGCACACGU
B8: target 2 MT 5'PFS GUA 3'PFS CCA (mixed)
RNA 1: CACCCGUGCAAAAUUGCAGGGGUCUAAAACCUUCUCCAAAUUGUUUCAUCCU
RNA 2: GGGAAUGGAUCCACAUCUACGAAUUCGUAAGGAUGAAACAAUUUGGAGAAGCCAAGAUCGGAAGAGCACACGU
B9: target 2 MT 5'PFS AAC 3'PFS AGC (mixed)
RNA 1: CACCCGUGCAAAAUUGCAGGGGUCUAAAACCUUCUCCAAAUUGUUUCAUCCU
RNA 2: GGGAAUGGAUCCACAUCUACGAAUUCAACAGGAUGAAACAAUUUGGAGAAGAGCAGAUCGGAAGAGCACACGU
B10: target 2 MT 5'PFS GCA 3'PFS AUA (mixed)
RNA 1: CACCCGUGCAAAAUUGCAGGGGUCUAAAACCUUCUCCAAAUUGUUUCAUCCU
RNA 2: GGGAAUGGAUCCACAUCUACGAAUUCGCAAGGAUGAAACAAUUUGGAGAAGAUAAGAUCGGAAGAGCACACGU
B11: target 2 MT 5'PFS CAG 3'PFS AAA (mixed)
RNA 1: CACCCGUGCAAAAUUGCAGGGGUCUAAAACCUUCUCCAAAUUGUUUCAUCCU
RNA 2: GGGAAUGGAUCCACAUCUACGAAUUCCAGAGGAUGAAACAAUUUGGAGAAGAAAAGAUCGGAAGAGCACACGU
B12: target 2 MT 5'PFS GCA 3'PFS AUC (mixed)
RNA 1: CACCCGUGCAAAAUUGCAGGGGUCUAAAACCUUCUCCAAAUUGUUUCAUCCU
RNA 2: GGGAAUGGAUCCACAUCUACGAAUUCGCAAGGAUGAAACAAUUUGGAGAAGAUCAGAUCGGAAGAGCACACGU
B13: target 2 MT 5'PFS GCA 3'PFS AUG (mixed)
RNA 1: CACCCGUGCAAAAUUGCAGGGGUCUAAAACCUUCUCCAAAUUGUUUCAUCCU
RNA 2: GGGAAUGGAUCCACAUCUACGAAUUCGCAAGGAUGAAACAAUUUGGAGAAGAUGAGAUCGGAAGAGCACACGU
B14: target 2 MT 5'PFS UUG 3'PFS UCC (mixed)
RNA 1: CACCCGUGCAAAAUUGCAGGGGUCUAAAACCUUCUCCAAAUUGUUUCAUCCU
RNA 2: GGGAAUGGAUCCACAUCUACGAAUUCUUGAGGAUGAAACAAUUUGGAGAAGUCCAGAUCGGAAGAGCACACGU
B15: target 2 MT 5'PFS UUG 3'PFS ACU (mixed)
RNA 1: CACCCGUGCAAAAUUGCAGGGGUCUAAAACCUUCUCCAAAUUGUUUCAUCCU
RNA 2: GGGAAUGGAUCCACAUCUACGAAUUCUUGAGGAUGAAACAAUUUGGAGAAGACUAGAUCGGAAGAGCACACGU
B16: target 2 MT 5'PFS GCA 3'PFS AUU (mixed)
RNA 1: CACCCGUGCAAAAUUGCAGGGGUCUAAAACCUUCUCCAAAUUGUUUCAUCCU
RNA 2: GGGAAUGGAUCCACAUCUACGAAUUCGCAAGGAUGAAACAAUUUGGAGAAGAUUAGAUCGGAAGAGCACACGU
B17: target 2 MT 5'PFS UUG 3'PFS ACA (mixed)
RNA 1: CACCCGUGCAAAAUUGCAGGGGUCUAAAACCUUCUCCAAAUUGUUUCAUCCU
RNA 2: GGGAAUGGAUCCACAUCUACGAAUUCUUGAGGAUGAAACAAUUUGGAGAAGACAAGAUCGGAAGAGCACACGU
B18: target 1 insG 3' of 22,insA 3' of 7 (mixed)
RNA 1: CACCCGUGCAAAAAUGCAGGGGUCUAAAACUGAGCGGAUAACCUCUCUAUGG
RNA 2: GGGAAUGGAUCCACAUCUACGAAUUCGUACGCAUAGAGAGGUUAUCACGCUCACCGAGAUCGGAAGAGCACACGU
B19: target 2 MT 5'PFS UUG 3'PFS ACC (mixed)
RNA 1: CACCCGUGCAAAAUUGCAGGGGUCUAAAACCUUCUCCAAAUUGUUUCAUCCU
RNA 2: GGGAAUGGAUCCACAUCUACGAAUUCUUGAGGAUGAAACAAUUUGGAGAAGACCAGAUCGGAAGAGCACACGU
B20: target 2 MT 5'PFS UUG 3'PFS ACG (mixed)
RNA 1: CACCCGUGCAAAAUUGCAGGGGUCUAAAACCUUCUCCAAAUUGUUUCAUCCU
RNA 2: GGGAAUGGAUCCACAUCUACGAAUUCUUGAGGAUGAAACAAUUUGGAGAAGACGAGAUCGGAAGAGCACACGU
B21: target 2 MT 5'PFS ACA 3'PFS CCG (mixed)
RNA 1: CACCCGUGCAAAAUUGCAGGGGUCUAAAACCUUCUCCAAAUUGUUUCAUCCU
RNA 2: GGGAAUGGAUCCACAUCUACGAAUUCACAAGGAUGAAACAAUUUGGAGAAGCCGAGAUCGGAAGAGCACACGU
B22: target 2 MT 5'PFS UGC 3'PFS UGC (mixed)
RNA 1: CACCCGUGCAAAAUUGCAGGGGUCUAAAACCUUCUCCAAAUUGUUUCAUCCU
RNA 2: GGGAAUGGAUCCACAUCUACGAAUUCUGCAGGAUGAAACAAUUUGGAGAAGUGCAGAUCGGAAGAGCACACGU
B23: target 2 MT 5'PFS ACG 3'PFS CUU (mixed)
RNA 1: CACCCGUGCAAAAUUGCAGGGGUCUAAAACCUUCUCCAAAUUGUUUCAUCCU
RNA 2: GGGAAUGGAUCCACAUCUACGAAUUCACGAGGAUGAAACAAUUUGGAGAAGCUUAGAUCGGAAGAGCACACGU
B24: target 2 MT 5'PFS GGA 3'PFS AAU (mixed)
RNA 1: CACCCGUGCAAAAUUGCAGGGGUCUAAAACCUUCUCCAAAUUGUUUCAUCCU
RNA 2: GGGAAUGGAUCCACAUCUACGAAUUCGGAAGGAUGAAACAAUUUGGAGAAGAAUAGAUCGGAAGAGCACACGU
B25: target 2 MT 5'PFS GGA 3'PFS AAC (mixed)
RNA 1: CACCCGUGCAAAAUUGCAGGGGUCUAAAACCUUCUCCAAAUUGUUUCAUCCU
RNA 2: GGGAAUGGAUCCACAUCUACGAAUUCGGAAGGAUGAAACAAUUUGGAGAAGAACAGAUCGGAAGAGCACACGU
B26: target 2 MT 5'PFS GGA 3'PFS AAA (mixed)
RNA 1: CACCCGUGCAAAAUUGCAGGGGUCUAAAACCUUCUCCAAAUUGUUUCAUCCU
RNA 2: GGGAAUGGAUCCACAUCUACGAAUUCGGAAGGAUGAAACAAUUUGGAGAAGAAAAGAUCGGAAGAGCACACGU
B27: target 2 MT 5'PFS GGA 3'PFS AAG (mixed)
RNA 1: CACCCGUGCAAAAUUGCAGGGGUCUAAAACCUUCUCCAAAUUGUUUCAUCCU
RNA 2: GGGAAUGGAUCCACAUCUACGAAUUCGGAAGGAUGAAACAAUUUGGAGAAGAAGAGAUCGGAAGAGCACACGU
B28: target 2 MT 5'PFS GUG 3'PFS UAG (mixed)
RNA 1: CACCCGUGCAAAAUUGCAGGGGUCUAAAACCUUCUCCAAAUUGUUUCAUCCU
RNA 2: GGGAAUGGAUCCACAUCUACGAAUUCGUGAGGAUGAAACAAUUUGGAGAAGUAGAGAUCGGAAGAGCACACGU

Molecular target: T1, EsCas13d, nuclease-dead
Assay: crRNA (strand 1, pre-loaded); Mg2+; 40 mM Tris-HCl pH 7.5, 150 mM NaCl, 6 mM MgCl2, 1 mM DTT, 0.1% Tween-20, 0.2 mg/ml BSA; 25 C; 10 min per concentration, then washed
Settings: tags: His6-TwinStrep-SUMO cleaved; N-terminal SNAP kept (SNAP-Surface 488); label: 3' end held by stalled T7 RNA polymerase

B1 and B2 are within error of each other in Kd: 4.4 ± 0.4 nM for the first, 3.6 ± 0.5 nM for the second.

Going from B3 to B4, the Kd rises from 11.6 ± 0.9 nM to 25 ± 5 nM (2.2-fold).

Compared with B5, B6 is 1.8-fold higher in Kd: 10.3 ± 1.7 nM for the first, 18.5 ± 2.9 nM for the second. The first binds more tightly here.

Compared with B7, B8 is 2.8-fold higher in Kd: 6.17 ± 0.31 nM for the first, 17.3 ± 2.4 nM for the second.

First: B9
Second: B10
The Kd of the first is 1.6-fold lower: 4.4 ± 1.5 nM for the first, 7.2 ± 1 nM for the second.

Compared with B11, B12 is 1.9-fold higher in Kd: 7.5 ± 2 nM for the first, 14 ± 4 nM for the second. The first binds more tightly here.

Compared with B13, B14 is 4.8-fold higher in Kd: 8.8 ± 0.9 nM for the first, 42 ± 7 nM for the second. The first binds more tightly here.

Going from B15 to B16, the Kd falls from 16.2 ± 1.8 nM to 10.3 ± 1 nM (1.6-fold).

B17 and B18 are within error of each other in Kd: 15 ± 1.4 nM for the first, 15.2 ± 1 nM for the second.

Compared with B19, B20 is 2.5-fold lower in Kd: 47 ± 10 nM for the first, 18.5 ± 1.6 nM for the second.

Compared with B21, B22 is 10-fold higher in Kd: 6.3 ± 1 nM for the first, 64 ± 18 nM for the second. The first binds more tightly here.

Going from B23 to B24, the Kd falls from 11.1 ± 2.1 nM to 6.7 ± 0.6 nM (1.7-fold). The second binds more tightly here.

B25 and B26 are within error of each other in Kd: 7.4 ± 0.7 nM for the first, 8.6 ± 1.9 nM for the second.

B27 and B28 are within 1.5-fold of each other in Kd: 9.3 ± 1.4 nM for the first, 13.3 ± 1.3 nM for the second.
